{"source": "patent US20040157268", "target": "β2 adrenergic receptor modified to have a Flag epitope at the amino terminus and a TEV protease site within the third intracellular loop between residues 254 and 260 of the native protein", "data": [{"protein": "Tobacco Etch Virus (TEV) protease, recombinant (protein) GESLFKGPRDYNPISSTICHLTNESDGHTTSLYGIGFGPFIITNKHLFRRNNGTLLVQSLHGVFKVKNTTTLQQHLIDGRDMIIIRMPKDFPPFPQKLKFREPQREERICLVTTNFQTKSMSSMVSDTSCTFPSSDGIFWKHWIQTKDGQCGSPLVSTRDGFIVGIHSASNFTNTNNYFTSVPKNFMELLTNQEAQQWVSGWRLNADSVLWGGHKVFMSKPEEPFQPVKEATQLMNELVYSQ", "values": [{"measurement": "Ratio of TEV-cleaved to uncleaved receptor (axis 'cut/uncut'), from the blot of FIG. 11B", "value": "Two bars, no error bars and no printed values. The 'Control' bar ends just above the 0.3 tick. The 'Isoproterenol' bar ends between the 1.2 and 1.5 ticks, several times higher than the control."}, {"measurement": "TEV cleavage of the receptor (Western blot; ratio of cleaved to uncleaved receptor), with and without the agonist isoproterenol", "value": "TEV cleavage of the 12 adrenergic receptor was enhanced in the presence of isoproterenol"}, {"measurement": "TEV cleavage of the receptor's third-loop TEV site, seen as the lower (cleaved, N-terminal) band on a Western blot probed with M1 antibody", "value": "No lower band without TEV (TEV-/ISO-). Very faint lower band with TEV alone (TEV+/ISO-). Strong lower band and a weaker upper band with TEV plus isoproterenol (TEV+/ISO+)."}]}]}
